B1: Speckle-type POZ protein (Homo sapiens), O43791 (parent)
chain: MSRVPSPPPPAEMSSGPVAESWCYTQIKVVKFSYMWTINNFSFCREEMGEVIKSSTFSSGANDKLKWCLRVNPKGLDEESKDYLSLYLLLVSCPKSEVRAKFKFSILNAKGEETKAMESQRAYRFVQGKDWGFKKFIRRDFLLDEANGLLPDDKLTLFCEVSVVQDSVNISGQNTMNMVKVPECRLADELGGLWENSRFTDCCLCVAGQEFQAHKAILAARSPVFSAMFEHEMEESKKNRVEINDVEPEVFKEMMCFIYTGKAPNLDKMADDLLAAADKYALERLKVMCEDALCSNLSVENAAEILILADLHSADQLKTQAVDFINYHASDVLETSGWKSMVVSHPHLVAEAYRSLASAQCPFLGPPRKRLKQS
partner: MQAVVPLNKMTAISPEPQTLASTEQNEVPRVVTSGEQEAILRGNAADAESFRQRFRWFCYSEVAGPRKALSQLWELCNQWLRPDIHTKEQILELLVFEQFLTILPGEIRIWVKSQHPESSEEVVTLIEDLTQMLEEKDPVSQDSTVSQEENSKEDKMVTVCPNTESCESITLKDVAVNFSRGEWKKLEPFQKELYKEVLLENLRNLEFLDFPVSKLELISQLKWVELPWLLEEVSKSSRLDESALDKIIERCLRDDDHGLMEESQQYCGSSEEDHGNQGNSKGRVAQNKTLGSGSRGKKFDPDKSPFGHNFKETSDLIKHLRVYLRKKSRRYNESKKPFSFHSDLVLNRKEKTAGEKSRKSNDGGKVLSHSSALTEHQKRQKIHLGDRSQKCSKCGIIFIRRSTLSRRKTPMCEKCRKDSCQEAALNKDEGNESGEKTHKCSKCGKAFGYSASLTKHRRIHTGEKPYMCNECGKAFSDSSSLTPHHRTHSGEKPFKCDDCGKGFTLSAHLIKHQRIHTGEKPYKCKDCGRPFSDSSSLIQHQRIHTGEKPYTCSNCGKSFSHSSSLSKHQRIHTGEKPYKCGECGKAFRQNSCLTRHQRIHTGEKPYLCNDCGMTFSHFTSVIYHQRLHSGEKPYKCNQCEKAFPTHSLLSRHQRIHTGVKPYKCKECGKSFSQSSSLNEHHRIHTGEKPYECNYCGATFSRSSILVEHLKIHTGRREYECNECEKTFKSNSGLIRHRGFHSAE
B2: Speckle-type POZ protein (Homo sapiens), O43791 (parent)
chain: B1 chain
partner: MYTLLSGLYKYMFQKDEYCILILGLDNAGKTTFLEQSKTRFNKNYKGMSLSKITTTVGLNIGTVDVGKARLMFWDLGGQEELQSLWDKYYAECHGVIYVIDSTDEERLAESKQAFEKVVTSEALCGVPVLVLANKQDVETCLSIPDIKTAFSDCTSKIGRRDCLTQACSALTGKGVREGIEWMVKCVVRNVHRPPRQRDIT
B3: Speckle-type POZ protein (Homo sapiens), O43791 (parent)
chain: B1 chain
partner: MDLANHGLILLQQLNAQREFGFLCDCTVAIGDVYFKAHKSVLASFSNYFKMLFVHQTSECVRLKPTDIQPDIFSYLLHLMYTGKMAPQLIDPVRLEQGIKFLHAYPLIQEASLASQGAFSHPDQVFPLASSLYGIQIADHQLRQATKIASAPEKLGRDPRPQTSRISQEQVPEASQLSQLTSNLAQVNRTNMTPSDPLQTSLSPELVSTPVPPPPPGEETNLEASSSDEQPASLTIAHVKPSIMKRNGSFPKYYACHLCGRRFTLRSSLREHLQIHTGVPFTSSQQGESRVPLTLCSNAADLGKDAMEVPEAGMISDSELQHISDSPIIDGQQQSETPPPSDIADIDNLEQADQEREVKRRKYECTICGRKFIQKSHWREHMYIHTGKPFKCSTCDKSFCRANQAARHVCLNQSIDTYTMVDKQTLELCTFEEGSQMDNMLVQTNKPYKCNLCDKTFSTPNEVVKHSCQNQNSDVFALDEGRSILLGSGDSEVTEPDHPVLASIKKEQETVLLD
B4: Speckle-type POZ protein (Homo sapiens), O43791 (parent)
chain: B1 chain
partner: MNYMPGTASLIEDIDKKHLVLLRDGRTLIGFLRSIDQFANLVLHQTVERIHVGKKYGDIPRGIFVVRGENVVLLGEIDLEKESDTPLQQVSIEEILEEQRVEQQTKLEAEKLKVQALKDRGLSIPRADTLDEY
B5: Speckle-type POZ protein (Homo sapiens), O43791 (parent)
chain: B1 chain
partner: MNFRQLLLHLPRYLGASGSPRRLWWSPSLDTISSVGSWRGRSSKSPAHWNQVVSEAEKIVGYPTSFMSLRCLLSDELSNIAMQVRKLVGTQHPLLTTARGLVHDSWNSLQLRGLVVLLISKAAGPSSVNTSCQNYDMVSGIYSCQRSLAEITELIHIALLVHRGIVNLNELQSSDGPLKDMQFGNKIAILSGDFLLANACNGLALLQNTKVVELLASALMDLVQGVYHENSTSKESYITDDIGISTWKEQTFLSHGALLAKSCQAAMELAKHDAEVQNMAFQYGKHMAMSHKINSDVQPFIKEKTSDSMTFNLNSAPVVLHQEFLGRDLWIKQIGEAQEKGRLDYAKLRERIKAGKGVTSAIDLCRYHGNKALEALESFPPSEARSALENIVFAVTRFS
B6: Speckle-type POZ protein (Homo sapiens), O43791 (parent)
chain: B1 chain
partner: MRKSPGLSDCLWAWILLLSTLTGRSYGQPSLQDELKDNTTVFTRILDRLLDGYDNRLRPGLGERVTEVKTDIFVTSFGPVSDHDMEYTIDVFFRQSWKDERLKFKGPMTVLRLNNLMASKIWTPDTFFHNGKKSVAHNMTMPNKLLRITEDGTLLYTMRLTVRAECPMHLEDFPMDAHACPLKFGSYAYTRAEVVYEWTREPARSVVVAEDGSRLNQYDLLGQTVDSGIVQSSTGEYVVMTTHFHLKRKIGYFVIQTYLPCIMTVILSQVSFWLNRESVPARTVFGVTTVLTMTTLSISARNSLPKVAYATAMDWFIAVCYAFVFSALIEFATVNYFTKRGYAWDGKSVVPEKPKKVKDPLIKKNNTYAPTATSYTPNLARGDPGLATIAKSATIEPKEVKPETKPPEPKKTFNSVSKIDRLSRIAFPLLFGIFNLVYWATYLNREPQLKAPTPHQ
B7: Speckle-type POZ protein (Homo sapiens), O43791 (parent)
chain: B1 chain
partner: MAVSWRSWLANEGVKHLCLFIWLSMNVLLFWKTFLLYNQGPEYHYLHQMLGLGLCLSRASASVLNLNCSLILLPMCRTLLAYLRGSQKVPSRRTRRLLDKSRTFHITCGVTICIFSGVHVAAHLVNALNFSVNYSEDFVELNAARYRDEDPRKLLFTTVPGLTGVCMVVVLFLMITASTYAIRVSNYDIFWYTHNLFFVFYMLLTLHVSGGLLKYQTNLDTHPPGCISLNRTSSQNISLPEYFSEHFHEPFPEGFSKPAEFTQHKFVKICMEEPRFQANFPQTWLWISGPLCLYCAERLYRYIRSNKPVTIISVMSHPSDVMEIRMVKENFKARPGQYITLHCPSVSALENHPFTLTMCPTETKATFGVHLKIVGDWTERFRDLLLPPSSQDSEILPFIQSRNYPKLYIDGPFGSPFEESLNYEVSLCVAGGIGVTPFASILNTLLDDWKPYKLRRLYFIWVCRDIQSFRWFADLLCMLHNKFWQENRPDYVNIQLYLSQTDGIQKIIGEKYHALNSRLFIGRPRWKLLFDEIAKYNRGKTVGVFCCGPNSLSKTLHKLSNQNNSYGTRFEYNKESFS

Variants of: B1
Conditions: with zn483_human ZNF483, Q8TF39

Row | effect of a mutation on the interaction | Variant
1 | with no effect | Y87C

Variants of: B2
Conditions: with arfrp_human ARFRP1, Q13795

Row | effect of a mutation on the interaction | Variant
2 | with no effect | Y87C

Variants of: B3
Conditions: with zbtb2_human ZBTB2, Q8N680

Row | effect of a mutation on the interaction | Variant
3 | with no effect | F133L

Variants of: B3
Conditions: with zbtb2_human ZBTB2, Q8N680
Remark: another data set of the same source

Row | effect of a mutation on the interaction | Variant
4 | causing an interaction | F133L

Variants of: B3
Conditions: with zbtb2_human ZBTB2, Q8N680
Remark: another data set of the same source

Row | effect of a mutation on the interaction | Variant
5 | causing an interaction | F133V

Variants of: B3
Conditions: with zbtb2_human ZBTB2, Q8N680
Remark: another data set of the same source

Row | effect of a mutation on the interaction | Variant
6 | with no effect | Y87C

Variants of: B4
Conditions: with lsm1_human LSM1, O15116

Row | effect of a mutation on the interaction | Variant
7 | with no effect | F133V

Variants of: B5
Conditions: with dlp1_human PDSS2, Q86YH6

Row | effect of a mutation on the interaction | Variant
8 | with no effect | F133L

Variants of: B5
Conditions: with dlp1_human PDSS2, Q86YH6
Remark: another data set of the same source

Row | effect of a mutation on the interaction | Variant
9 | with no effect | Y87C

Variants of: B6
Conditions: with gbra1_human GABRA1, P14867

Row | effect of a mutation on the interaction | Variant
10 | with no effect | Y87C

Variants of: B7
Conditions: with nox4_human NOX4, Q9NPH5

Row | effect of a mutation on the interaction | Variant
11 | with no effect | Y87C
